Source: patent US20230143294A1 (SYNBIO TECHNOLOGIES, published 2023)
Changes are numbered by the printed parent chain. Read-outs that look alike come from different tables or passages of the source.

Assays:
[1] = molecular target: T1, human PD-L1 antigen (Beijing Sino Biological Inc, Catalog No. #10084-H08H-100) (human, UniProt Q9NZQ7 19-239); test: BLI (ForteBIO Octet), antibody captured on sensor, human PD-L1 in solution
T1 construct: Bought antigen; also called the antigen

[2] = molecular target: T1, human PD-L1 antigen (Beijing Sino …); test: as above; remark: listed apart in the source

T1 sequence (Q9NZQ7 19-239 limits assumed): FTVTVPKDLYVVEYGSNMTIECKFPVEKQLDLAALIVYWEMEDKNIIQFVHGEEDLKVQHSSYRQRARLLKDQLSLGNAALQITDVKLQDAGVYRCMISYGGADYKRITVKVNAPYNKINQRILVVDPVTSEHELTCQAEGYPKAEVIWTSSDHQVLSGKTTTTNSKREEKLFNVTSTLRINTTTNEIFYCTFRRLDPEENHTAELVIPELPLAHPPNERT

B1: Antibody I-HX-2 (antibody, human IgG4 S228P, kappa, V domains shown)
VH: VQLVQSGAEVKKPGASVKVSCKASGYSFTSYWMHWVRQAPGQGLEWMGAIYPGNSDTSYNQKFKGRVTITAVTSASTAYMELSSLRSEDTAVYYCTRWGDGYYHAMDHWGQGTLVTVSS
VL: DIQMTQSPSSLSASVGDRVTITCRASQDIGNTLNWLQQKPGKAIKRLIYATSSLDSGVPKRFSGSRSGSDYSLTISSLQPEDFATYYCLQYASSPFTFGQGTKLEIKR
notes: also called antibody I sample; candidate antibody I sample
With B1 the Kd [1] was 0.0291 nM, the koff [1] was 2.7e-07 s⁻¹ and the kon [1] was 9280 M⁻¹ s⁻¹.

B2: Antibody I-HX-1 (antibody, human IgG4 S228P, kappa, V domains shown)
VH: B1 VH with F28Y, T29Y, S30F, P52H, G53I, D100E, D107N
VL: B1 VL with I29L, T51S, Q90Y, S94T
notes: expressed in HEK 293 or CHO cells
B2 gave a Kd [1] of 0.046 nM, a koff [1] of 4.1e-07 s⁻¹ and a kon [1] of 8920 M⁻¹ s⁻¹.

B3: Antibody I-HX-6 (antibody, human IgG4 S228P, kappa, V domains shown)
VH: B1 VH with T29S, N54Q, D56E, R97H, G99I, Y103F, A105V
VL: B1 VL with D28E, N31Q, A50G, Q90N, A92I
B3 was tested, and the Kd [1] was 0.0481 nM, the koff [1] was 4.29e-07 s⁻¹ and the kon [1] was 8930 M⁻¹ s⁻¹.

B4: Antibody I-HX-7 (antibody, human IgG4 S228P, kappa, V domains shown)
VH: B1 VH with S30T, P52W, G53A, N54H, D56E
VL: B1 VL with D28E, N31Q, Q90Y, S94T
Binder B4 has a Kd [1] of 0.047 nM, a koff [1] of 4.27e-07 s⁻¹ and a kon [1] of 9090 M⁻¹ s⁻¹.

B5: Antibody I-HX-4 (antibody, human IgG4 S228P, kappa, V domains shown)
VH: VQLVQSGAEVKKPGASVKVSCKASGYTYNFYWMHWVRQAPGQGLEWMGAIYHVQSDTSYNQKFKGRVTITAVTSASTAYMELSSLRSEDTAVYYCTHWLEVYFHGMDHWGQGTLVTVSS
VL: B1 VL with D28E, N31Q, A50V, Q90Y, Y91F
Work on B5 yielded a Kd [1] of 0.11 nM, a koff [1] of 8.95e-07 s⁻¹ and a kon [1] of 8100 M⁻¹ s⁻¹.

B6: Antibody I-HX-5 (antibody, human IgG4 S228P, kappa, V domains shown)
VH: B5 VH with Y28F, N29T, F30S, H52W, V53A, Q54H, D56E
VL: B1 VL with D28N, I29G, G30I, A50V, Q90Y, S94Y, P95F
Work on B6 yielded a Kd [1] of 0.459 nM, a koff [1] of 3.27e-06 s⁻¹ and a kon [1] of 7120 M⁻¹ s⁻¹.

B7: Antibody I-HX-8 (antibody, human IgG4 S228P, kappa, V domains shown)
VH: VQLVQSGAEVKKPGASVKVSCKASGYSFTTYWMHWVRQAPGQGLEWMGAIYPVHSETSYNQKFKGRVTITAVTSASTAYMELSSLRSEDTAVYYCTHWIEAFFHLMQHWGQGTLVTVSS
VL: B1 VL with D28N, N31Q, A50S
Work on B7 yielded a Kd [1] of 0.259 nM, a koff [1] of 1.81e-06 s⁻¹ and a kon [1] of 6990 M⁻¹ s⁻¹.

B8: Antibody II-HX-15 (antibody, human IgG4 S228P, kappa, V domains shown)
VH: VQLVQSGAEVKKPGASVKVSCKASGYTFTSYVMHWVRQAPGQGLEWMGYINPYNDGTKYNEKFKGRVTITSDKSASTAYMELSSLRSEDTAVYYCAWSGAIFEYWGQGTLVTVSS
VL: TQSPSFLSASVGDRVTITCSASSSVSYMHWFQQKPGKSPKLWIYSTSNLASGVPARFSGSGSGTSYSLTISSLQPEDFATYYCQQRSSYPYTFGQGTKLEIKR
notes: also called antibody II sample; candidate antibody II sample
B8 gave a Kd [2] of 0.149 nM, a koff [2] of 5.6e-07 s⁻¹ and a kon [2] of 3760 M⁻¹ s⁻¹.

B9: Antibody II-HX-10 (antibody, human IgG4 S228P, kappa, V domains shown)
VH: B8 VH with T27S, F28T, T29S, Y31F, P52Y, G56A
VL: B8 VL with T46Y, Q85N, S87T, Y89F, P90H
For B9, the Kd [2] was 3.67 nM, the koff [2] was 9.2e-06 s⁻¹ and the kon [2] was 2510 M⁻¹ s⁻¹.

B10: Antibody II-HX-13 (antibody, human IgG4 S228P, kappa, V domains shown)
VH: B8 VH with T27S, W97R, G99I, A100G, F102T, E103D
VL: B8 VL with V25I, Y89F
B10 gave a Kd [2] of 0.707 nM, a koff [2] of 2.13e-06 s⁻¹ and a kon [2] of 3010 M⁻¹ s⁻¹.

B11: Antibody II-HX-16 (antibody, human IgG4 S228P, kappa, V domains shown)
VH: B8 VH with T27F, F28Y, Y53F, N54Q, G56I, G99A, I101L, F102S
VL: B8 VL with Q85N, S87Y
B11 gave a Kd [2] of 3.71 nM, a koff [2] of 9.19e-06 s⁻¹ and a kon [2] of 2500 M⁻¹ s⁻¹.

B12: Antibody II-HX-18 (antibody, human IgG4 S228P, kappa, V domains shown)
VH: B8 VH with T27Y, F28T, T29S, Y31P, W97K, A100G, F102S, E103D
VL: B8 VL with V25A, T46Y, Q85Y, S87T
For B12, the Kd [2] was 0.624 nM, the koff [2] was 1.92e-06 s⁻¹ and the kon [2] was 3080 M⁻¹ s⁻¹.

B13: Antibody II-HX-19 (antibody, human IgG4 S228P, kappa, V domains shown)
VH: B8 VH with T27Y, F28T, P52H, Y53F, N54Q, G56A
VL: B8 VL with V25G, S26Y, S45T
Binder B13 has a Kd [2] of 1.23 nM, a koff [2] of 3.75e-06 s⁻¹ and a kon [2] of 3040 M⁻¹ s⁻¹.

B14: Antibody II-HX-11 (antibody, human IgG4 S228P, kappa, V domains shown)
VH: VQLVQSGAEVKKPGASVKVSCKASGYYTSSPVMHWVRQAPGQGLEWMGYINYFYDGTKYNEKFKGRVTITSDKSASTAYMELSSLRSEDTAVYYCAKSAIAFEYWGQGTLVTVSS
VL: B8 VL with S24T, S26Y, Q85Y, P90W
Work on B14 yielded a Kd [2] of 2.8 nM, a koff [2] of 7.71e-06 s⁻¹ and a kon [2] of 2750 M⁻¹ s⁻¹.

B15: Antibody II-HX-14 (antibody, human IgG4 S228P, kappa, V domains shown)
VH: B8 VH with T27F, T29S, Y31F, P52Y, G56A, W97R, G99A, I101L, F102S
VL: B8 VL with S24T, V25I, S26T, S45Y, Q85N, S87T, Y89F, P90H
B15 showed a Kd [2] of 3.19 nM, a koff [2] of 9.55e-06 s⁻¹ and a kon [2] of 2990 M⁻¹ s⁻¹.

B16: Antibody II-HX-17 (antibody, human IgG4 S228P, kappa, V domains shown)
VH: VQLVQSGAEVKKPGASVKVSCKASGYFFSSFVMHWVRQAPGQGLEWMGYINHFQDATKYNEKFKGRVTITSDKSASTAYMELSSLRSEDTAVYYCARSVGITDYWGQGTLVTVSS
VL: B8 VL with S24T, S26Y, T46Y, P90H
Work on B16 yielded a Kd [2] of 1.82 nM, a koff [2] of 4.92e-06 s⁻¹ and a kon [2] of 2710 M⁻¹ s⁻¹.

B17: Antibody I-HX-3 (antibody, human IgG4 S228P, kappa, V domains shown)
VH: B5 VH with N29Y, V53G, Q54N, D56E, L99A, E100D, V101A, D107N
VL: B1 VL with D28N, G30A, A50V, T51S, Q90Y, S94Y, P95F
B17 was tested, and the Kd [1] was 0.271 nM, the koff [1] was 1.92e-06 s⁻¹ and the kon [1] was 7080 M⁻¹ s⁻¹.
